Assay [1] has as its target human CCR8 (human) (UniProt P51685). The assay can be described thus: cell-based or functional assay.
For assay [2] the target is unchanged. The assay can be described thus: binding affinity EC50, comparison of Table 12 (FACS on CCR8-expressing cells).

One may read the EC50 as the concentration needed to bring the measured effect to its halfway point.

Sequence of human CCR8 (human) (P51685 whole entry): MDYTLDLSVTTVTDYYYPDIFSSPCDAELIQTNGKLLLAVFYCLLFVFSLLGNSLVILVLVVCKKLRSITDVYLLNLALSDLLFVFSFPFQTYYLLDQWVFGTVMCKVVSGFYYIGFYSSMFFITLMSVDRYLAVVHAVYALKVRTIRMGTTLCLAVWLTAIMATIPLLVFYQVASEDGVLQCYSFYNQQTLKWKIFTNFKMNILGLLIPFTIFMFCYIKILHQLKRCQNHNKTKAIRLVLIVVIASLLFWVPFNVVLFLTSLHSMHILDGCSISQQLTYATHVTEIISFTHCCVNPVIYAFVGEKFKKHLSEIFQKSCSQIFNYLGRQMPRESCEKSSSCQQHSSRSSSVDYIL

Turning to GS-1811 (antibody), the Signal block Ca2+ with human CCR8 (human) [1] stood at 4.34 nM. In the assay with human CCR8 (human) [2], this substance gave an EC50 of 0.29 nM.

Consider S-531011 (antibody), for which, in the assay with human CCR8 (human) [2], the concentration for a half-maximal effect (EC50) amounted to 0.243 nM.
